# Source: doi:10.1101/2023.12.14.571638, “Structural basis of a regulatory switch in mammalian complex I” (bioRxiv, 2023)
# B1: NDUFA1 (natural protein, Bos taurus (bovine), UniProt Q02377 1-70, looked up)
# chain: MWFEVLPGIAVMGVCLFIPGMATARIHRFSNGGKEKRVAHYPYQWYLMERDRRVSGVNRSYVSKGLENID
# notes: NDUFA1, supernumerary subunit of respiratory complex I, Bos taurus; endogenous subunit of the purified enzyme
# B2: ND6 (natural protein, Bos taurus (bovine), UniProt P03924 1-175, looked up)
# chain: MMLYIVFILSVIFVMGFVGFSSKPSPIYGGLGLIVSGGVGCGIVLNFGGSFLGLMVFLIYLGGMMVVFGYTTAMATEQYPEIWLSNKAVLGAFVTGLLMEFFMVYYVLKDKEVEVVFEFNGLGDWVIYDTGDSGFFSEEAMGIAALYSYGTWLVIVTGWSLLIGVVVIMEITRGN
# notes: ND6, core membrane subunit of respiratory complex I, Bos taurus; endogenous subunit of the purified enzyme
# B3: NDUFA13 (natural protein, Bos taurus (bovine), UniProt Q95KV7 1-144, looked up)
# chain: MAASKVKQDMPPVGGYGPIDYKRNLPRRGLSGYSMFAVGIGALLFGYWSMMKWNRERRRLQIEDFEARIALMPLLQAEKDRRVLQMLRENLEEEATVMKDVPGWKVGESVFHTTRWVTPMMGELYGLRASEEVLSATYGFIWYT
# notes: NDUFA13, supernumerary subunit of respiratory complex I, Bos taurus
# B4: NDUFA8 (natural protein, Bos taurus (bovine), UniProt P42029 1-172, looked up)
# chain: MPGIVELPSLEDLKVQEVKVSSSVLKAAAHHYGAQCDKPNKEFMLCRWEEKDPRRCLEEGKLVNQCALEFFRQIKRHCAEPFTEYWTCIDYSGLQLFRRCRKQQAQFDECVLDKLGWVRPDLGDLSKVTKVKTDRPLPENPYHSRARPEPNPEVEGDLKPARHGSRLFFWTM
# notes: NDUFA8, supernumerary subunit of respiratory complex I, Bos taurus; endogenous subunit of the purified enzyme
# Target: T1, ND1 (Bos taurus (bovine), UniProt P03887 1-318)
# T1 construct: ND1, core membrane subunit of respiratory complex I (NADH:ubiquinone oxidoreductase), Bos taurus; endogenous subunit of the purified enzyme; also called subunit ND1
# T1 sequence (P03887 whole entry): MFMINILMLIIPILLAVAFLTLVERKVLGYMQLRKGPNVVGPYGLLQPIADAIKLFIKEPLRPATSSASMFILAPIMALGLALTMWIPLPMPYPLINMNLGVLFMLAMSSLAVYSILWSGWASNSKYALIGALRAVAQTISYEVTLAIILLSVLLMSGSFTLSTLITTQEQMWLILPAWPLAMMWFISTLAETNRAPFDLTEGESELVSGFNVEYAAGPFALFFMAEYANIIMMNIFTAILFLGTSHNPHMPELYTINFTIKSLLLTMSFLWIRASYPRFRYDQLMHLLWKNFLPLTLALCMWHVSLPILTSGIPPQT
# Experiment: cryo-EM structure; bovine complex I purified in LMNG, reconstituted into proteoliposomes (DOPC:DOPE:cardiolipin 8:1:1, ubiquinone-10; 10 mM MOPS-KOH pH 7.5, 50 mM KCl), on graphene oxide grids; closed, open1 and open2 states, outward- and inward-facing; best map CI-out-closed 2.5 Å
# Conditions: both partners purified
row,Binder,binding result
1,B1,binds
2,B2,binds
3,B3,binds
4,B4,binds
